Results: the Immune Epitope Database (IEDB)

Tests used:
Experiment in all cases: IEDB peptide-MHC binding, purified MHC/competitive/radioactivity; filed as Kd, often an IC50 or EC50 that approximates it; ≥ and ≤ were set here for values at or beyond the usual limits of such assays
[1] = molecular target: HLA-A*02:06
[2] = molecular target: HLA-A*02:02
[3] = molecular target: HLA-A*02:03
[4] = molecular target: HLA-A*11:01
[5] = molecular target: HLA-A*33:01
[6] = molecular target: HLA-A*68:01
[7] = molecular target: HLA-A*31:01
[8] = molecular target: HLA-A*03:01
[9] = source organism: Vaccinia virus WR
[10] = source organism: SARS coronavirus Tor2
[11] = source organism: Dengue virus 4 Philippines/H241/1956
[12] = source organism: Mammarenavirus machupoense
[13] = source organism: Mammarenavirus whitewaterense
[14] = source organism: Mammarenavirus brazilense
[15] = source organism: Lymphocytic choriomeningitis virus (strain Armstrong)

## GQVMLLILCV
[1]; source organism: Dengue virus 2 Jamaica/1409/1983
  Kd: 77.2 nM

## SVDFVVNGHT
[1]; [9]
  Kd: ≥ 69800 nM
[2]; [9]
  Kd: ≥ 70000 nM
[3]; [9]
  Kd: ≥ 70400 nM

## GLKIEEIEK
[4]; [9]
  Kd: 6510 nM
[5]; [9]
  Kd: 16300 nM
[6]; [9]
  Kd: 16800 nM
[7]; [9]
  Kd: 13200 nM
[8]; [9]
  Kd: 5630 nM

## DTVWEVQGYK
[4]; [10]
  Kd: 74.6 nM
[5]; [10]
  Kd: 1680 nM
[6]; [10]
  Kd: 0.881 nM
[7]; [10]
  Kd: 7500 nM
[8]; [10]
  Kd: 58.4 nM

## KSSSIDVDK
[4]; [9]
  Kd: 161 nM
[5]; [9]
  Kd: ≥ 77700 nM
[6]; [9]
  Kd: 8590 nM
[7]; [9]
  Kd: 17700 nM
[8]; [9]
  Kd: 14200 nM

## GVIRSIFAR
[4]; [10]
  Kd: 0.618 nM
[5]; [10]
  Kd: 118 nM
[6]; [10]
  Kd: 0.519 nM
[7]; [10]
  Kd: 1.02 nM
[8]; [10]
  Kd: 1300 nM

## AVIIRGHLR
[4]; [10]
  Kd: 2240 nM
[5]; [10]
  Kd: ≥ 28200 nM
[6]; [10]
  Kd: 2640 nM
[7]; [10]
  Kd: 136 nM
[8]; [10]
  Kd: ≥ 33400 nM

## QILEENMEV
[1]; [11]
  Kd: 30.5 nM

## RLSAAIGKA
[3]; source organism: Dengue virus 1 Singapore/S275/1990
  Kd: 70.7 nM

## KSYFTNAAL
[1]; [12]
  Kd: 12000 nM
[2]; [12]
  Kd: 593 nM
[3]; [12]
  Kd: 7180 nM

## PMPCMINDTH
[4]; [13]
  Kd: ≥ 69700 nM
[5]; [13]
  Kd: ≥ 70000 nM
[6]; [13]
  Kd: ≥ 70100 nM
[7]; [13]
  Kd: ≥ 70000 nM
[8]; [13]
  Kd: ≥ 70000 nM

## FQPESPARL
[1]; [11]
  Kd: 36.9 nM

## QAEPSLYGRH
[4]; [14]
  Kd: ≥ 69700 nM
[5]; [14]
  Kd: ≥ 70000 nM
[6]; [14]
  Kd: ≥ 70100 nM
[7]; [14]
  Kd: ≥ 20000 nM
[8]; [14]
  Kd: ≥ 70000 nM

## TLYICDKQSH
[4]; [15]
  Kd: ≥ 47800 nM
[5]; [15]
  Kd: ≥ 70000 nM
[6]; [15]
  Kd: ≥ 70100 nM
[7]; [15]
  Kd: ≥ 34300 nM
[8]; [15]
  Kd: 15100 nM

## PVDLVKSSFV
[1]; [9]
  Kd: ≥ 26600 nM
[2]; [9]
  Kd: 6610 nM
[3]; [9]
  Kd: 9640 nM

## KLFKRERDA
[1]; [9]
  Kd: 14900 nM
[2]; [9]
  Kd: 2390 nM
[3]; [9]
  Kd: 985 nM

## GIEFADNDR
[4]; [9]
  Kd: 1740 nM
[5]; [9]
  Kd: 6540 nM
[6]; [9]
  Kd: 762 nM
[7]; [9]
  Kd: 7550 nM
[8]; [9]
  Kd: 2420 nM

## RAKRKPAMST
[1]; [9]
  Kd: 1550 nM
[2]; [9]
  Kd: 977 nM
[3]; [9]
  Kd: 1380 nM

## NFLRSIAMLK
[4]; [9]
  Kd: 316 nM
[5]; [9]
  Kd: 70 nM
[6]; [9]
  Kd: 272 nM
[7]; [9]
  Kd: 9.91 nM
[8]; [9]
  Kd: 74.6 nM

## AFNDDGIYIR
[4]; [9]
  Kd: 18100 nM
[5]; [9]
  Kd: 3210 nM
[6]; [9]
  Kd: 1690 nM
[7]; [9]
  Kd: 618 nM
[8]; [9]
  Kd: ≥ 70100 nM
